# In patent publication US20090274696A1, “METHODS FOR TREATING INFLAMMATION” (WYETH, priority 2008, published 2009):
# B1: rFIZZ1: recombinant FIZZ1 (Leinco Technologies), mouse FIZZ1 protein, resistin-like molecule-α (protein, listed as Mus musculus)
# chain: MKTTTCSLLICISLLQLMVPVNTDETIEIIVENKVKELLANIPANYPSTVTKTLSCTSVKTMNRWASCPAGMTATGCACGFACGSWEIQSGDTCNCLCLLV
# modifications: (1)..(101) Murine FIZZ1 polypeptide
# What was measured:
# BAL cells = assay: Counts of BAL cells in intranasally challenged mice; assay type: in vivo, mouse; settings: intranasal once a day×5 days, 100 nM rFIZZ1 or 0.1 ng/ml LPS; vs PBS-treated mice
# Experimental: For some experiments, ex vivo TSM tensions of fresh tracheal rings and BAL cell counts were measured at 24 hours after the last treatment of mice receiving an intranasal dose of either PBS, 0.1 ng/m: LPS or 100 nM rFIZZ1 (once a day×5 days).
# PBS- and OA-treated mice were sacrificed and their airways lavaged once with 1.0 mL of PBS via tracheal cannulation. An equal volume of BAL from each mouse was collected and centrifuged (1200 rpm, 5 min). Total BAL cells were counted using a hemocytometer. BAL cells ([…]) collected from each sample were applied to a glass slide using a cytospin (800 rpm, 8 min) and then the slide was stained with Hema 3 Stain Set (Fisher Scientific) for the differential count of cells. The relative proportion of different cells counted from 300 cells/slide was factored to the number of total BAL cells collected in each group.
# [1] = tested on: tracheal smooth muscle (TSM) of mouse tracheal rings; assay: CCh-evoked force generation in cultured tracheal rings; assay type: cell-based; settings: for Maximal tensions (%), CCh-evoked force generation: PBS-treated rings 100±8.39; for TSM sensitivity to CCh, LogEC50: Mean ± SE, N=6
# Experimental: Experimental animals were sacrificed by CO2 asphyxiation. Tracheas were surgically excised and cleaned of adherent connective tissue. Each trachea was sectioned into rings 3-4 mm in length and cultured in DMEM containing 1.0 M HEPES, 1.0 M NaOH, 5% of heat-inactivated FBS (Hy-Clone, Logan, Utah), 0.2M glutamine, 1.0 M CaCl2, 2.5 μg/ml fungizone, 5 μg/mL insulin, 100 U/mL penicillin and 100 μg/mL streptomycin) (DMEM-5%) for 24 hours. For in vitro experiments, the tracheal rings were cultured in DMEM in the absence and presence of either 10 or 100 nM recombinant FIZZ1 (Leinco Technologies, USA) for 24 hours.
# Trachea were supported longitudinally by a plexiglas rod with a stainless steel pin into the base of a double-jacketed, glass organ bath filled with 10 mL of Krebs-Henseleit (K-H) solution (37° C.) of the following composition: 118 mM NaCl; 4.7 mM KCl; 1.2 mM KH2PO4; 11.1 mM Dextrose; 1.2 mM MgSO4; 2.8 mM CaCl2; and 25 mM NaHCO3. The solution was maintained at a pH of 7.40-7.45 and continuously gassed with a mixture of 5% CO2 and […] for the duration of each experiment. […] Initial tensions of TSM were set at approximately 0.5 g and maintained for 1 hour. Agonists were given after a steady state of tension had been reached.
# [CCh]-response curves at the doses ranging from 3×10^−8 to 10^−5 M were completed in tracheal rings in absence and presence of either FIZZ1 or LPS (0.1 ng/mL). Concentrations of agonist were increased only when force responses to the previous concentration had stabilized. To examine TSM relaxant responses to isoprenaline (ISO), tracheal rings were first contracted by an addition of 1.0 μM CCh (Sigma, USA). Once the contraction had stabilized, ISO (Sigma, USA) was introduced into each bath at increasing concentrations (3×10^−8-10^−5 M). […] In an additional experiment, the effect of FIZZ1 protein on the CCh-mediated force response was verified using 100 nM heat-inactivated FIZZ1 (natural and recombinant FIZZ1 solution heated at 70° C. for 60 min). Their dose-response curves were obtained as above. Fresh drug solutions such as CCh and ISO were made up on the day of the experiment. Doses of the above agents refer to the final bath concentration.
# At the end of each force measurement experiment, tracheas were blotted on a gauze pad and weighted. Results were calculated as milligram of tension per milligram of TSM weight (mg/mg) and expressed as an individual percentage (%) of 10 μM CCh- or 200 μM papaverine-induced tension response in PBS-treated trachea. For the control group, CCh (papaverine)-mediated responses were normalized to the mean value of the maximal responses.
molecule,measurement,setting,value
B1,number of BAL cells,BAL cells,increase
same,"Maximal tensions (%), CCh-evoked force generation","[1]; 10 nM rFIZZ1, cultured 24 hours, n=6",117.21±7.87%
same,"Maximal tensions (%), CCh-evoked force generation","[1]; 100 nM rFIZZ1, cultured 24 hours, n=6",144.16±15.77%
same,"maximal responses (%) of the tracheal rings, CCh-evoked","[1]; FIG. 4B, 100 nM heat-inactivated or native rFIZZ1, 0.1 ng/mL LPS, PBS 100±4.82, n=6",135.67±9.02%
same,"TSM sensitivity to CCh, LogEC50",[1]; trachea treated with FIZZ1 10 nM,−0.96 ± 0.05 μM
same,"TSM sensitivity to CCh, LogEC50",[1]; trachea treated with FIZZ1 100 nM,−0.99 ± 0.03 μM
